This is an account of results in patent publication US20090286243A1 (CEDARS SINAI MEDICAL CENTER, published 2009).

Where a chain is given by its changes, count along the chain named. Names and notes keep the numbering of the source.

This experiment concerns the target T1, wild type human Kv3.3 (KCNC3) voltage-gated potassium channel subunit (human, UniProt Q14003 1-757).
T1 sequence: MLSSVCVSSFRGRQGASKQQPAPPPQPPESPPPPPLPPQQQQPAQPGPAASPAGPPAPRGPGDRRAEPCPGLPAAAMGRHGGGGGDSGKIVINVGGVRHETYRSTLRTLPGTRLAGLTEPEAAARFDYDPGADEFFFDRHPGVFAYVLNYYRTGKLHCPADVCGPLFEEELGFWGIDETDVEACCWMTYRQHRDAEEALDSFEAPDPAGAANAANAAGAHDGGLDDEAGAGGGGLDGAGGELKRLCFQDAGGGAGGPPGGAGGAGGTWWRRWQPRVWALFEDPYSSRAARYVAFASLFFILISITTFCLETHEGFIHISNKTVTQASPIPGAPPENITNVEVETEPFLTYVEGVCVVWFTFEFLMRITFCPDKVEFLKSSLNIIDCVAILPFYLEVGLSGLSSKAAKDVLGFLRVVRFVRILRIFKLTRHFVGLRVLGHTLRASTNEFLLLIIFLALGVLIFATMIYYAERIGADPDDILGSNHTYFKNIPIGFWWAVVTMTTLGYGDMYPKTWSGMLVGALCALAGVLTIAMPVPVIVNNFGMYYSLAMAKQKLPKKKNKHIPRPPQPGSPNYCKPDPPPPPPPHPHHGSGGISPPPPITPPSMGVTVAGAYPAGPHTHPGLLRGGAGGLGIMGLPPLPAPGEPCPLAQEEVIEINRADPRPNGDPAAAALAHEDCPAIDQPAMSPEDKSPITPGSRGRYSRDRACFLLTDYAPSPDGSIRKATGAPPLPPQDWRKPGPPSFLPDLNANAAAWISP
Kind of experiment: cell-based or functional assay.

B1: Kv3.3 R423H mutant subunit (other)
chain: T1 sequence with R423H
Consider B1, for which the “current amplitudes measured at +60 mV, 1:1 expression ratio of wild type and R423H, Xenopus oocytes” value is ~20 % of wild type expressed alone.

B2: Kv3.3 R366H mutant subunit (other)
chain: T1 sequence with R366H
Turning to B2, the “current amplitudes, 1:1 expression ratio of wild type and R366H, Xenopus oocytes” value was ~50 % of wild type expressed alone.
